Measured values taken from patent publication US20260055193A1 (CELLDEX THERAPEUTICS, published 2026).

T1: recombinant human FcγRIIb (human, UniProt P31994 46-217, limits assumed)
T1 construct: Histidine-tagged recombinant receptor captured on anti-Penta-His biosensors; not shown: histidine tag
T1 sequence (looked up): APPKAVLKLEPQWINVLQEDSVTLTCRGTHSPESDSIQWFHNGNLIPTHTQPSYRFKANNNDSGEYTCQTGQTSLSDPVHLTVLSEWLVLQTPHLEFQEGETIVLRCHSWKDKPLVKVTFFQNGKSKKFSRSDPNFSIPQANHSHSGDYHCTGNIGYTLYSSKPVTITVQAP


Experiments:
[1] = target: human KIT (wild-type KIT) (human, UniProt P10721 26-976); test: cell-based or functional assay
human KIT (wild-type KIT), sequence (P10721 other isoform, or with tags, fused parts or gaps limits assumed): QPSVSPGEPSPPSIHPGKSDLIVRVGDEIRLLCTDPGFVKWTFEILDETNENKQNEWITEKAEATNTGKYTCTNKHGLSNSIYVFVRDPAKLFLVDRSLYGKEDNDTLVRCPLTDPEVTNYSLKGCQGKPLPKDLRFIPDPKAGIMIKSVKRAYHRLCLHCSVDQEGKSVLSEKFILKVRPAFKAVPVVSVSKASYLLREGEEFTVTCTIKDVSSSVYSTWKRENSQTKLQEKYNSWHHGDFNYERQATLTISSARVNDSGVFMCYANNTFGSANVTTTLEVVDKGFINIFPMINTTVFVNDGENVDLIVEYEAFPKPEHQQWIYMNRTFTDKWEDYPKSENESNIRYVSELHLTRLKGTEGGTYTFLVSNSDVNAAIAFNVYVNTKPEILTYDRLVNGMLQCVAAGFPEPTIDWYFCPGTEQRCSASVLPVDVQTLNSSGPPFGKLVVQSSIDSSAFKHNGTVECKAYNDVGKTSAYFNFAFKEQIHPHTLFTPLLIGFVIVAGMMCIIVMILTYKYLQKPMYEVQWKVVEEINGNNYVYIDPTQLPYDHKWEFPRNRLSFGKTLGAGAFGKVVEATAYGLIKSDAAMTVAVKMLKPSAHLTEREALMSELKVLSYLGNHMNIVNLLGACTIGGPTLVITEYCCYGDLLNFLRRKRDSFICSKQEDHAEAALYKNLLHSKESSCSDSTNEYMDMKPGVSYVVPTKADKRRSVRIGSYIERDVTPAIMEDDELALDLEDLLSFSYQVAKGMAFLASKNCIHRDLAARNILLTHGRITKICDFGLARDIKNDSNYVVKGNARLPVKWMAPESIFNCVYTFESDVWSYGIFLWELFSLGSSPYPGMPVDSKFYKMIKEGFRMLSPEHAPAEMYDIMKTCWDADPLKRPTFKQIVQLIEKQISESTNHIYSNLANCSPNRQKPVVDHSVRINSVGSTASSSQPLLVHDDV

[2] = target: T1, recombinant human FcγRIIb; test: Bio-layer interferometry (Octet QKe); His-tagged FcγRIIb on anti-Penta-His biosensors, serial dilutions of antibody
Method: Binding to recombinant human Fc receptors was measured by bio-layer interferometry using an Octet® QKe instrument. […] Curve fitting was performed using the instrument's analysis software. Binding to FcRn was performed with association and dissociation steps at pH 6.0 as well as pH 7.2.

IC50 of inhibition of SCF-dependent M-07e cell proliferation [1] [nM] | binding result [2] | Binder
1.11 |  | mAb1 (antibody, human IgG1, kappa) heavy: QVQLVQSGAEVKKPGASVKLSCKASGYTFTDYYINWVRQAPGKGLEWIARIYPGSGNTYYNEKFKGRATLTADKSTSTAYMQLSSLRSEDTAVYFCARGVYYFDYWGQGTTVTVSSASTKGPSVFPLAPSSKSTSGGTAALGCLVKDYFPEPVTVSWNSGALTSGVHTFPAVLQSSGLYSLSSVVTVPSSSLGTQTYICNVNHKPSNTKVDKKVEPKSCDKTHTCPPCPAPEAQGGPSVFLFPPKPKDTLYITREPEVTCVVVDVSHEDPEVKFNWYVDGVEVHNAKTKPREEQYNSTYRVVSVLTVLHQDWLNGKEYKCQVSNKALPAPIEKTISKAKGQPREPQVYTLPPSRDELTKNQVSLTCLVKGFYPSDIAVEWESNGQPENNYKTTPPVLDSDGSFFLYSKLTVDKSRWQQGNVFSCSVMHEALHNHYTQKSLSLSPG light: DIVMTQSPSSLSASVGDRVTITCKASQNVRTNVAWYQQKPGKAPKALIYSASYRYSGVPDRFTGSGSGTDFTLTISSLQPEDFADYFCQQYNSYPRTFGGGTKVEIKRTVAAPSVFIFPPSDEQLKSGTASVVCLLNNFYPREAKVQWKVDNALQSGNSQESVTEQDSKDSTYSLSSTLTLSKADYEKHKVYACEVTHQGLSSPVTKSFNRGEC
1.12 | no binding (tested: 500 nM) | mAbc (antibody, It only says that mAbc has the variable regions of mAb1 and a wild-type (unmutated) human IgG1 Fc; also called corresponding antibody with a wild-type (unmutated) IgG1 Fc domain; copies: 2 + 2) heavy: not shown light: DIVMTQSPSSLSASVGDRVTITCKASQNVRTNVAWYQQKPGKAPKALIYSASYRYSGVPDRFTGSGSGTDFTLTISSLQPEDFADYFCQQYNSYPRTFGGGTKVEIKRTVAAPSVFIFPPSDEQLKSGTASVVCLLNNFYPREAKVQWKVDNALQSGNSQESVTEQDSKDSTYSLSSTLTLSKADYEKHKVYACEVTHQGLSSPVTKSFNRGEC
